# B1: Tyrosine-protein phosphatase non-receptor type 1 (Homo sapiens), P18031 (parent)
# chain: MEMEKEFEQIDKSGSWAAIYQDIRHEASDFPCRVAKLPKNKNRNRYRDVSPFDHSRIKLHQEDNDYINASLIKMEEAQRSYILTQGPLPNTCGHFWEMVWEQKSRGVVMLNRVMEKGSLKCAQYWPQKEEKEMIFEDTNLKLTLISEDIKSYYTVRQLELENLTTQETREILHFHYTTWPDFGVPESPASFLNFLFKVRESGSLSPEHGPVVVHCSAGIGRSGTFCLADTCLLLMDKRKDPSSVDIKKVLLEMRKFRMGLIQTADQLRFSYLAVIEGAKFIMGDSSVQDQWKELSHEDLEPPPEHIPPPPRPPKRILEPHNGKCREFFPNHQWVKEETQEDKDCPIKEEKGSPLNAAPYGIESMSQDTEVRSRVVGGSLRGAQAASPAKGEPSLPEKDEDHALSYWKPFLVNMCVATVLTAGAYLCYRFLFNSNT
# Variants of: B1
# Conditions: with k2c8_human KRT8, P05787
# Sequence of k2c8_human KRT8, P05787 (P05787 whole entry): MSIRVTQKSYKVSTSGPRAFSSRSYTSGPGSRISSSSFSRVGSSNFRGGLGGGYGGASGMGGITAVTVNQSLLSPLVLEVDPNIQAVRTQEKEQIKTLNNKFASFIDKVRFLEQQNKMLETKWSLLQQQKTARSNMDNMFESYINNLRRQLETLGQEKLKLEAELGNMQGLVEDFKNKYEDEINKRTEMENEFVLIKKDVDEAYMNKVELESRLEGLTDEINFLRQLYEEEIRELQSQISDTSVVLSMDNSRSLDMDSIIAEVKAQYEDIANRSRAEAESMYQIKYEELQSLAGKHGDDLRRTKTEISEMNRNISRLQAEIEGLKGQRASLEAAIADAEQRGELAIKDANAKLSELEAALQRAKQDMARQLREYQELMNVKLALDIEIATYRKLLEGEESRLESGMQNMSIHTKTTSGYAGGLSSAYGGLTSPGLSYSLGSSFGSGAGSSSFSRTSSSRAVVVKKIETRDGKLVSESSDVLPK
row,effect of a mutation on the interaction,Variant
1,increasing interaction strength,D181A
